Results as given in IntAct's records for PubMed 12860405.

B1: Interleukin-1 receptor-associated kinase 4 (Homo sapiens), Q9NWZ3 (parent)
chain: MNKPITPSTYVRCLNVGLIRKLSDFIDPQEGWKKLAVAIKKPSGDDRYNQFHIRRFEALLQTGKSPTSELLFDWGTTNCTVGDLVDLLIQNEFFAPASLLLPDAVPKTANTLPSKEAITVQQKQMPFCDKDRTLMTPVQNLEQSYMPPDSSSPENKSLEVSDTRFHSFSFYELKNVTNNFDERPISVGGNKMGEGGFGVVYKGYVNNTTVAVKKLAAMVDITTEELKQQFDQEIKVMAKCQHENLVELLGFSSDGDDLCLVYVYMPNGSLLDRLSCLDGTPPLSWHMRCKIAQGAANGINFLHENHHIHRDIKSANILLDEAFTAKISDFGLARASEKFAQTVMTSRIVGTTAYMAPEALRGEITPKSDIYSFGVVLLEIITGLPAVDEHREPQLLLDIKEEIEDEEKTIEDYIDKKMNDADSTSVEAMYSVASQCLHEKKNKRPDIKKVQQLLQEMTAS
partner: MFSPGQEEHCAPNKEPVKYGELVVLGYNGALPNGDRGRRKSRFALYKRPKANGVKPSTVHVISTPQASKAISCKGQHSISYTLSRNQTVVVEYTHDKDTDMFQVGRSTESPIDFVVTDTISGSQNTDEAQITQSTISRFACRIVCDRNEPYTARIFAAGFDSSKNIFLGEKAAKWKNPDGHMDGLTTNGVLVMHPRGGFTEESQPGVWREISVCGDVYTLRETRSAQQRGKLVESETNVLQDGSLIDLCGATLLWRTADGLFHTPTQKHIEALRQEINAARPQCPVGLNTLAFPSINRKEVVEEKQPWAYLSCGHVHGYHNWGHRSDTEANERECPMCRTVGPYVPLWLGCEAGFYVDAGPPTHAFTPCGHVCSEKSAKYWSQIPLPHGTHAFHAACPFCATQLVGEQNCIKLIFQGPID
B2: Interleukin-1 receptor-associated kinase 1 (Homo sapiens), P51617 (parent)
chain: MAGGPGPGEPAAPGAQHFLYEVPPWVMCRFYKVMDALEPADWCQFAALIVRDQTELRLCERSGQRTASVLWPWINRNARVADLVHILTHLQLLRARDIITAWHPPAPLPSPGTTAPRPSSIPAPAEAEAWSPRKLPSSASTFLSPAFPGSQTHSGPELGLVPSPASLWPPPPSPAPSSTKPGPESSVSLLQGARPFPFCWPLCEISRGTHNFSEELKIGEGGFGCVYRAVMRNTVYAVKRLKENADLEWTAVKQSFLTEVEQLSRFRHPNIVDFAGYCAQNGFYCLVYGFLPNGSLEDRLHCQTQACPPLSWPQRLDILLGTARAIQFLHQDSPSLIHGDIKSSNVLLDERLTPKLGDFGLARFSRFAGSSPSQSSMVARTQTVRGTLAYLPEEYIKTGRLAVDTDTFSFGVVVLETLAGQRAVKTHGARTKYLKDLVEEEAEEAGVALRSTQSTLQAGLAADAWAAPIAMQIYKKHLDPRPGPCPPELGLGLGQLACCCLHRRAKRRPPMTQVYERLEKLQAVVAGVPGHSEAASCIPPSPQENSYVSSTGRAHSGAAPWQPLAAPSGASAQAAEQLQRGPNQPVESDESLGGLSAALRSWHLTPSCPLDPAPLREAGCPQGDTAGESSWGSGPGSRPTAVEGLALGSSASSSSEPPQIIINPARQKMVQKLALYEDGALDSLQLLSSSSLPGLGLEQDRQGPEESDEFQS
partner: B1 partner

Variants of: B1
Conditions: with peli2_human PELI2, Q9HAT8

Row | Variant | effect of a mutation on the interaction
1 | MNKPITPSTYVRCLNVGLIRKLSDFIDPQEGWKKLAVAIKKPSGDDRYNQFHIRRFEALLQTGKSPTSELLFDWGTTNCTVGDLVDLLIQNEFFAPASLLLPDAVPKTANTLPSKEAITVQQKQMPFCDKDRTLMTPVQNLEQSYMPPDSSSPENKSLEVSDTRFHSFSFYELKNVTNNFDERPISVGGNKMGEGGFGVVYKGYVNNTTVAVAKLAAMVDITTEELKQQFDQEIKVMAKCQHENLVELLGFSSDGDDLCLVYVYMPNGSLLDRLSCLDGTPPLSWHMRCKIAQGAANGINFLHENHHIHRDIKSANILLDEAFTAKISDFGLARASEKFAQTVMTSRIVGTTAYMAPEALRGEITPKSDIYSFGVVLLEIITGLPAVDEHREPQLLLDIKEEIEDEEKTIEDYIDKKMNDADSTSVEAMYSVASQCLHEKKNKRPDIKKVQQLLQEMTAS [K213A] | disrupting interaction

Variants of: B2
Conditions: with peli2_human PELI2, Q9HAT8

Row | Variant | effect of a mutation on the interaction
2 | K239S | disrupting interaction
